Measurements from patent US20080299638A1 (priority 2004, published 2008).

Test system: HBV-DNA in 2.2.15 cells
Experiment: HBV-DNA Southern blot in 2.2.15 cells
Format: cell-based, hepatitis B virus
Method: Southern blot: Extraction of HBV-DNA from 2.2.15 cells: add drugs and incubate 2.2.15 cells for 8 days, remove medium and harvest cells, lyse cells with lysis solutions, extracts with equal volume phenol:chloroform:isopentanol twice, add absolute ethanol to precipitate nucleic acid, vacuum dry, re-dissolve in 20 μl TE buffer, add DNA sample buffer, put samples into agarose gel for electrophoresis. After electrophoresis, denature, neutralize and transfer to membrane. Oven dry, hybridize, expose with dot blotting the same time. Scan developed film with scanner, analyze relative density with gel-pro software, and calculate suppression rate and IC50.

[1] = Arginase 2.5 μg/ml (unit as headed), batch 1, day 8
[2] = Arginase 2.5 μg/ml (unit as headed), batch 2, day 8
[3] = Arginase 5 μg/ml (unit as headed), batch 1, day 8
[4] = Arginase 5 μg/ml (unit as headed), batch 2, day 8
[5] = Arginase 10 μg/ml (unit as headed), batch 1, day 8
[6] = Arginase 10 μg/ml (unit as headed), batch 2, day 8
[7] = Arginase 20 μg/ml (unit as headed), batch 1, day 8
[8] = Arginase 20 μg/ml (unit as headed), batch 2, day 8

B1: Arginase: Pegylated recombinant human arginase (BCT-100); human arginase I with N-terminal six-histidine tag, SEQ ID NO: 3 (protein, listed as Homo sapiens)
chain: MHHHHHHMSAKSRTIGIIGAPFSKGQPRGGVEEGPTVLRKAGLLEKLKEQECDVKDYGDLPFADIPNDSPFQIVKNPRSVGKASEQLAGKVAQVKKNGRISLVLGGDHSLAIGSISGHARVHPDLGVIWVDAHTDINTPLTTTSGNLHGQPVSFLLKELKGKIPDVPGFSWVTPCISAKDIVYIGLRDVDPGEHYILKTLGIKYFSMTEVDRLGIGKVMEETLSYLLGRKKRPIHLSFDVDGLDPSFTPATGTPVVGGLTYREGLYITEEIYKTGLLSGLDIMEVNPSLGKTPEEVTRTVNTAVAITLACFGLAREGNHKPIDYLNPPK
modifications: PEGylated
- Effect on HBV-DNA in cells (result in words) (2.2.15 cells, 8 days): lowers
- HBV-DNA Southern Blot In Lane % Suppression [1]: 31.6525%
- HBV-DNA Southern Blot Sum % Suppression [1]: 26.4131%
- HBV-DNA Southern Blot Sum (IOD) (Arginase 2.5 μg/ml (unit as headed), batch 1, day 8, control 29421): 21650 IOD
- HBV-DNA Southern Blot In Lane (IOD) (Arginase 2.5 μg/ml (unit as headed), batch 1, day 8, control 42082): 28762 IOD
- HBV-DNA Southern Blot In Lane % Suppression [2]: 38.6255%
- HBV-DNA Southern Blot Sum % Suppression [2]: 0%
- HBV-DNA Southern Blot Sum (IOD) (Arginase 2.5 μg/ml (unit as headed), batch 2, day 8, control 66143): 68619 IOD
- HBV-DNA Southern Blot In Lane (IOD) (Arginase 2.5 μg/ml (unit as headed), batch 2, day 8, control 76188): 88350 IOD
- HBV-DNA Southern Blot In Lane % Suppression [3]: 31.5717%
- HBV-DNA Southern Blot Sum % Suppression [3]: 31.6679%
- HBV-DNA Southern Blot Sum (IOD) (Arginase 5 μg/ml (unit as headed), batch 1, day 8, control 29421): 20104 IOD
- HBV-DNA Southern Blot In Lane (IOD) (Arginase 5 μg/ml (unit as headed), batch 1, day 8, control 42082): 28796 IOD
- HBV-DNA Southern Blot In Lane % Suppression [4]: 19.0752%
- HBV-DNA Southern Blot Sum % Suppression [4]: 30.0259%
- HBV-DNA Southern Blot Sum (IOD) (Arginase 5 μg/ml (unit as headed), batch 2, day 8, control 66143): 46283 IOD
- HBV-DNA Southern Blot In Lane (IOD) (Arginase 5 μg/ml (unit as headed), batch 2, day 8, control 76188): 61655 IOD
- HBV-DNA Southern Blot In Lane % Suppression [5]: 22.7722%
- HBV-DNA Southern Blot Sum % Suppression [5]: 17.6303%
- HBV-DNA Southern Blot Sum (IOD) (Arginase 10 μg/ml (unit as headed), batch 1, day 8, control 29421): 24234 IOD
- HBV-DNA Southern Blot In Lane (IOD) (Arginase 10 μg/ml (unit as headed), batch 1, day 8, control 42082): 32499 IOD
- HBV-DNA Southern Blot In Lane % Suppression [6]: 13.0559%
- HBV-DNA Southern Blot Sum % Suppression [6]: 29.1172%
- HBV-DNA Southern Blot Sum (IOD) (Arginase 10 μg/ml (unit as headed), batch 2, day 8, control 66143): 46884 IOD
- HBV-DNA Southern Blot In Lane (IOD) (Arginase 10 μg/ml (unit as headed), batch 2, day 8, control 76188): 66241 IOD
- HBV-DNA Southern Blot In Lane % Suppression [7]: 25.2982%
- HBV-DNA Southern Blot Sum % Suppression [7]: 14.9893%
- HBV-DNA Southern Blot Sum (IOD) (Arginase 20 μg/ml (unit as headed), batch 1, day 8, control 29421): 25011 IOD
- HBV-DNA Southern Blot In Lane (IOD) (Arginase 20 μg/ml (unit as headed), batch 1, day 8, control 42082): 31436 IOD
- HBV-DNA Southern Blot In Lane % Suppression [8]: 38.6255%
- HBV-DNA Southern Blot Sum % Suppression [8]: 47.9416%
- HBV-DNA Southern Blot Sum (IOD) (Arginase 20 μg/ml (unit as headed), batch 2, day 8, control 66143): 34433 IOD
- HBV-DNA Southern Blot In Lane (IOD) (Arginase 20 μg/ml (unit as headed), batch 2, day 8, control 76188): 46760 IOD
- HBV-DNA Southern Blot Sum IC50 (batch 1, 8 days): 25.42 IU/ml
- HBV-DNA Southern Blot In Lane IC50 (batch 1, day 8): 21.45 IU/ml
- HBV-DNA Southern Blot Sum IC50 (batch 2, 8 days): 14.17 IU/ml
- HBV-DNA Southern Blot In Lane IC50 (batch 2, day 8): 18.67 IU/ml
- HBV-DNA Southern Blot Sum IC50 (two batches average, 8 days): 19.79±7.95 IU/ml
- HBV-DNA Southern Blot In Lane IC50 (two batches average, day 8): 20.06±1.96 IU/ml
